Square brackets hold non-standard residues; d marks the D form. Ends that are not written are not given here. Dip = N[C@H](C(=O)O)C(c1ccccc1)c1ccccc1; Aib = CC(C)(N)C(=O)O
Key:
mouse adipocytes = assay: Glucose uptake in mouse adipocytes (FFC); assay type: cell-based; settings: for EC50 (FFC) rel. to HI: EC50 value expressed relative to that of human insulin in the same assay; for EC50: concentration needed for half maximal uptake of glucose in mouse adipocytes
[1] = target: HIR +11 (human insulin receptor, B isoform) (Homo sapiens, UniProt P06213); assay: Binding of IM peptides to IR isoform HIR +11; settings: +11 (B) isoform
Source text: (§1) A number of IRBPs (S519; S557; S597; S636; S667; S733; S671; S660; S696; S574; S700; S626; and S726), some of which described in the prior patent documents, were applied to A and B isoforms (−11 and +11 isoforms) of the human, rat, and pig insulin receptors (HIR, RIR, and PIR) using standard methods.

[2] = target: RIR +11 (rat insulin receptor, B isoform) (Rattus norvegicus, UniProt P15127); assay: Binding of IM peptides to IR isoform RIR +11; settings: +11 (B) isoform
Source text: as §1

[3] = target: HIR −11 (human insulin receptor, A isoform) (Homo sapiens, UniProt P06213); assay: Binding of IM peptides to IR isoform HIR −11; settings: −11 (A) isoform
Source text: as §1

[4] = target: RIR −11 (rat insulin receptor, A isoform) (Rattus norvegicus, UniProt P15127); assay: Binding of IM peptides to IR isoform RIR −11; settings: −11 (A) isoform
Source text: as §1

[5] = test system: PIR −11 (pig insulin receptor, A isoform); assay: Binding of IM peptides to IR isoform PIR −11; settings: −11 (A) isoform
Source text: as §1

[6] = test system: PIR +11 (pig insulin receptor, B isoform); assay: Binding of IM peptides to IR isoform PIR +11; settings: +11 (B) isoform
Source text: as §1

wistar rats = assay: Blood glucose after administration to wistar rats; assay type: in vivo, rat
Description: IRBP S667 was and human insulin were administered to wistar rats (S667 at 1.25 nmol/kg; 2.5 nmol/kg; and 5 nmol/kg; human insulin (HI) at 1.25 nmol/kg) using standard techniques, such as are described in the prior patent documents. Glucose measurements were taken 20 minutes prior to administration, at administration, and 20; 40; 60; 80; 120; and 180 minutes after administration. These measurements are compared in FIG. 3.

human IR (HIR) = human IR (HIR) (Homo sapiens, UniProt P06213); assay: Human IR affinity (Kd); assay type: binding; settings: Kd value expressed relative to that of human insulin in the same assay
[7] = test system: pepsin, elastase, chymotrypsin, trypsin, and carboxy-peptidase A; assay: Digestion with digestive enzymes (enzymatic stability); assay type: in vitro ADME
Source text: A novel IRBP was derived from S597 by introducing the unusual amino acid residues aminoisobutyric acid and diphenylalanine into the Xaa7 position of the N-terminal Formula 6-like IRBAAS sequence of S597 (in place of Ala) and into the Xaa1 position of the C-terminal Formula 1 sequence (in place of Phe).

[8] = target: insulin receptor on mouse adipocytes (mouse, UniProt P15208 28-1372); assay: cell-based or functional assay
[9] = target: human insulin receptor isoform with exon 11 (human) (UniProt P06213); assay: receptor binding, standard methods (FIG. 2)
[10] = target: rat insulin receptor isoform with exon 11 (rat) (UniProt P15127); assay: receptor binding, standard methods (FIG. 2)
[11] = target: T1, human insulin receptor isoform without exon 11 (human, UniProt P06213-2 28-1370, limits assumed); assay: receptor binding, standard methods (FIG. 2)
T1 construct: also called HIR-11; HIR - 11
Source text: as §1

[12] = target: T2, rat insulin receptor isoform without exon 11 (rat, UniProt P15127-2 27-1371, limits assumed); assay: receptor binding, standard methods (FIG. 2)
T2 construct: also called RIR-11; RIR - 11
Source text: as §1

[13] = target: T3, pig insulin receptor isoform without exon 11 (pig, UniProt F1SCK8 28-746; F1SCK8 751-1370); assay: receptor binding, standard methods (FIG. 2)
T3 construct: also called PIR-11; PIR - 11
Source text: as §1

[14] = target: T4, pig insulin receptor isoform with exon 11 (pig, UniProt F1SCL0 28-758; F1SCL0 763-1382); assay: receptor binding, standard methods (FIG. 2)
T4 construct: also called PIR+11; PIR + 11
Source text: as §1

T3 sequence (alpha, as listed by the source limits assumed, stated change not applied, form in doubt, chain 1 of 2): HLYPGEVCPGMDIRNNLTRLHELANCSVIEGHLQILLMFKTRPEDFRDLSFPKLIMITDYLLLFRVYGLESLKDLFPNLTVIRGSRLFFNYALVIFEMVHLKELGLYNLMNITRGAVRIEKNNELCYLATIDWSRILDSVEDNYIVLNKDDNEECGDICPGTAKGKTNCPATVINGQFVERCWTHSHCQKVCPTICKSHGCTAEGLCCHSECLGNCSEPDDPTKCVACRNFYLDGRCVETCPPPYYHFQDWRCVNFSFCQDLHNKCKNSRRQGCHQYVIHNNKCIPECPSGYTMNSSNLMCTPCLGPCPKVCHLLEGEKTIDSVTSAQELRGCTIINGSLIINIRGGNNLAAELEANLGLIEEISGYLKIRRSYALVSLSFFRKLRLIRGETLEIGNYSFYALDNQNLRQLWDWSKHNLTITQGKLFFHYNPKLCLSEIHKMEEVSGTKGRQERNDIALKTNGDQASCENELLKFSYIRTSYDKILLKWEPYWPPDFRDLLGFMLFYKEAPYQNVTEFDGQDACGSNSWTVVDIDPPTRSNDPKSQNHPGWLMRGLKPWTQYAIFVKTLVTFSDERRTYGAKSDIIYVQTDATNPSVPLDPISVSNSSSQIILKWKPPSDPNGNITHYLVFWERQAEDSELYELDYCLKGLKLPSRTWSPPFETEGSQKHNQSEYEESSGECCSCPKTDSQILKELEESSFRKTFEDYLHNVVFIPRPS
T3 sequence (beta, as listed by the source limits assumed, stated change not applied, form in doubt, chain 2 of 2): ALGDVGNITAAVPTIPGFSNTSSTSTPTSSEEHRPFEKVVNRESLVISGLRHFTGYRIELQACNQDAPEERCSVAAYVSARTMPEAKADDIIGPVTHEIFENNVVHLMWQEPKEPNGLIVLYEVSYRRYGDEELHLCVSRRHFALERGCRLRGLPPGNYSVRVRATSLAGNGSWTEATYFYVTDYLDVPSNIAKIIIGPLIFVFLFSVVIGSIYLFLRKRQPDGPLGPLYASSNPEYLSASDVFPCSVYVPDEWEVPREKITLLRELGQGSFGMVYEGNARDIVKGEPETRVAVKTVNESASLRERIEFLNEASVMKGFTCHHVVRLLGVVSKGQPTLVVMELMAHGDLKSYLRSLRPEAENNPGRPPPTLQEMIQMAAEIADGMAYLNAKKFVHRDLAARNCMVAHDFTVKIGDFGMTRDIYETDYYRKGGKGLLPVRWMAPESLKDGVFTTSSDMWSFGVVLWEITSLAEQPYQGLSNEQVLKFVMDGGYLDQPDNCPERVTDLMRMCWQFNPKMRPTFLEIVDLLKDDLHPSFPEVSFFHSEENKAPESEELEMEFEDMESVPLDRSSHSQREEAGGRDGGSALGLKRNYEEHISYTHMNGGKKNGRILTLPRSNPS
Sequence of rat insulin receptor isoform with exon 11 (rat) (P15127 27-1383, stated change not applied): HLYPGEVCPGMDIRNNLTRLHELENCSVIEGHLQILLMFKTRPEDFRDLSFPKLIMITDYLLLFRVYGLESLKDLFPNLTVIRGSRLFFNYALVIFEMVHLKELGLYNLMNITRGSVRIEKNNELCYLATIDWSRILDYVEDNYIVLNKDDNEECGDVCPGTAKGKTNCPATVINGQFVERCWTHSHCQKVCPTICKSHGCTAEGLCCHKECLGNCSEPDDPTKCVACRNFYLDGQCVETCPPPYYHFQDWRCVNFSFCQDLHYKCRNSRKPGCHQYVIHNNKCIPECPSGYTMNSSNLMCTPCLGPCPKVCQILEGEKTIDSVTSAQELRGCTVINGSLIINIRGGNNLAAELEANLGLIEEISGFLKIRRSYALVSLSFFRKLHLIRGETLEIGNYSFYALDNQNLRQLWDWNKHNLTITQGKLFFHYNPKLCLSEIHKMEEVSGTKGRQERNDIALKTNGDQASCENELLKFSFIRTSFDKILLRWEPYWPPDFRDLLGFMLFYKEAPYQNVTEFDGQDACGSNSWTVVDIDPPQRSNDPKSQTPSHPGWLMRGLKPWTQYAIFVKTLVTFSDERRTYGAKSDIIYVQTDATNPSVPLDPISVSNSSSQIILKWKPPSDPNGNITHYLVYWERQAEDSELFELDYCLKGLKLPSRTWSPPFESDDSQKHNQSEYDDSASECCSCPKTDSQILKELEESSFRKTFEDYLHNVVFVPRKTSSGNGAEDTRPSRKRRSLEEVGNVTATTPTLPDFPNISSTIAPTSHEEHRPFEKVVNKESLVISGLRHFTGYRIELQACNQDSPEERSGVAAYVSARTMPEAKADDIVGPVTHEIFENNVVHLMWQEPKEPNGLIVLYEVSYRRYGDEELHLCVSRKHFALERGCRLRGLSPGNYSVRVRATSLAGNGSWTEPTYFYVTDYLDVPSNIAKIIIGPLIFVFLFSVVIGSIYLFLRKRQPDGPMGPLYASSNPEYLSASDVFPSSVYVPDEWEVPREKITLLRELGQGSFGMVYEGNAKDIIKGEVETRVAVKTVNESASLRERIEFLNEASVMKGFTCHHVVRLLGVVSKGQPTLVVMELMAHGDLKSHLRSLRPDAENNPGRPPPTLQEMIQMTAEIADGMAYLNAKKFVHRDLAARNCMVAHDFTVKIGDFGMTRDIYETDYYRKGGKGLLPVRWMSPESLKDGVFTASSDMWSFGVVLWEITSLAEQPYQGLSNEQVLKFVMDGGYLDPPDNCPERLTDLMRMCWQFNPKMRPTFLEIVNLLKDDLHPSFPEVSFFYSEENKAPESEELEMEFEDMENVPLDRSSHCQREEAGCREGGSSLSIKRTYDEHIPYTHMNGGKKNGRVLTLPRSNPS
T4 sequence (alpha, as listed by the source limits assumed, stated change not applied, form in doubt, chain 1 of 2): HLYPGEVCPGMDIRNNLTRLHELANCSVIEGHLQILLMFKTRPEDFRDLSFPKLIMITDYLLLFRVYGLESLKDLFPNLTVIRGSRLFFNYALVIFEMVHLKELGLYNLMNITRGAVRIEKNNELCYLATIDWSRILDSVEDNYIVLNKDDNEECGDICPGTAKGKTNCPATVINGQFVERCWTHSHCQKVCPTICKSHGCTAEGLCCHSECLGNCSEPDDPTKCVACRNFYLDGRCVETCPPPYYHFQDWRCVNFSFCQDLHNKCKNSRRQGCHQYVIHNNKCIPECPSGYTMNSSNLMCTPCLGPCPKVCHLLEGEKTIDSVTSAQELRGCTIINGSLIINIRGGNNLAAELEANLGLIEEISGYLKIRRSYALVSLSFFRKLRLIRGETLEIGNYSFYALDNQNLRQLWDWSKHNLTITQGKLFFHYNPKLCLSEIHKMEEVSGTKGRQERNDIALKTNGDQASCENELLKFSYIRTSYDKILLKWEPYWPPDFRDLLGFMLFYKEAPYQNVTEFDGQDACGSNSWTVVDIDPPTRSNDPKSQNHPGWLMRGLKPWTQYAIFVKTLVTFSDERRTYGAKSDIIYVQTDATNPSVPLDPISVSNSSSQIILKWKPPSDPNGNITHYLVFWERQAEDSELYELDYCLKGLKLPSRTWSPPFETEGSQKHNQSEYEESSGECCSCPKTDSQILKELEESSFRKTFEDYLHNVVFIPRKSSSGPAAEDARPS
T4 sequence (beta, as listed by the source limits assumed, stated change not applied, form in doubt, chain 2 of 2): as the sequence (beta, as listed by the source limits assumed, stated change not applied, form in doubt, chain 2 of 2) above
Sequence of RIR +11 (rat insulin receptor, B isoform) (P15127 27-759 limits assumed): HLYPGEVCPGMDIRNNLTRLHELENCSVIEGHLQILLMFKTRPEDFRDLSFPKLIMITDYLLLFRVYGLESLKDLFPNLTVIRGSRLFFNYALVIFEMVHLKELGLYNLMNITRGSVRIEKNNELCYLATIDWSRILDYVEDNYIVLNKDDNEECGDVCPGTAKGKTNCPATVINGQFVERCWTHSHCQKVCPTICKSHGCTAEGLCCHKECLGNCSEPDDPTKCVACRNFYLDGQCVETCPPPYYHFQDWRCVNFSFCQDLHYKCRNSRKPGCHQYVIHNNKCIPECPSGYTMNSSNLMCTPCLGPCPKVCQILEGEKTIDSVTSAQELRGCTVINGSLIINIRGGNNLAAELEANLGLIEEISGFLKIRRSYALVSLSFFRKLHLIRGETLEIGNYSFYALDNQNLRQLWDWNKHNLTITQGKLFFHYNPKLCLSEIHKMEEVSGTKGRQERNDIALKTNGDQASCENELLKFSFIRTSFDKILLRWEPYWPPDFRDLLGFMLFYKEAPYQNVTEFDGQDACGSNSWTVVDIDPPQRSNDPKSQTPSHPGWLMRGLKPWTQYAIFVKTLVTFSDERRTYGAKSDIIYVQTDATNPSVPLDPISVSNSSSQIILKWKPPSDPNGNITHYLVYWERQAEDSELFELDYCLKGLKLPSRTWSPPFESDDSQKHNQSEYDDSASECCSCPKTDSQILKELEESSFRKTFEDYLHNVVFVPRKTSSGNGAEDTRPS
Sequence of RIR +11 (rat insulin receptor, B isoform) (P15127 764-1383 partner limits assumed): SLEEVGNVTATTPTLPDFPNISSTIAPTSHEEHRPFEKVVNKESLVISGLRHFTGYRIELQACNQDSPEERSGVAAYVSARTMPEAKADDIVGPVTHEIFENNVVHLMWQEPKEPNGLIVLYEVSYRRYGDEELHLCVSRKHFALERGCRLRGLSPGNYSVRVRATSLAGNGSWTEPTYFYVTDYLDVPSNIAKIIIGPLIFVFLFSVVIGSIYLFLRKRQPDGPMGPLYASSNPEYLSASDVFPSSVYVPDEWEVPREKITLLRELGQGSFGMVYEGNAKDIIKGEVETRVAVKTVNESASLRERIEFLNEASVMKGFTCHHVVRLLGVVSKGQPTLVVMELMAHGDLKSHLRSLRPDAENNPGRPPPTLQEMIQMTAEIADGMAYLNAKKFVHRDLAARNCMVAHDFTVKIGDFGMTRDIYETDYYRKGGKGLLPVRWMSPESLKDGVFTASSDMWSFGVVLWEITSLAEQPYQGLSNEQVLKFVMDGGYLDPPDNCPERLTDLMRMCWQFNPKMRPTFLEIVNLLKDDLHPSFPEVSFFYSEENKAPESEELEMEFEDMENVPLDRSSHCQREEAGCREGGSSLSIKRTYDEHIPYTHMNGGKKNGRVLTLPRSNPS

Row | relative affinity HIR +11 [1] | relative affinity RIR +11 [2] | EC50 (FFC) [8] | EC50 (FFC) rel. to HI [8] | relative affinity [9] | relative affinity [10] | relative affinity [11] | relative affinity [12] | relative affinity [13] | relative affinity [14] | Molecule | other results
1 |  |  |  |  |  |  |  |  |  |  | Ac-SLE-Aib-EW-Aib-QIQCEVWGRGCPSESFYDWFERQL [compound 663] | EC50 (FFC) rel. to HI (mouse adipocytes): 15%; EC50 (mouse adipocytes): 430 pM
2 | 8.2 | 2 |  |  |  |  |  |  |  |  | SLEEEWAQIEAEVWGRGAPSESFYDWFERQLG [S574] | 
3 | 290 | 211 |  |  |  |  |  |  |  |  | SLEEEWAQIQCEVWGRGCPSESFYGWFERQLG [compound 733] | 
4 |  |  |  |  |  |  |  |  |  |  | GSLDESFYDWFERQLG-(pox)2-SLEEEWAQIQCEVWGRGCPSY [compound 675] | EC50 (FFC) rel. to HI (mouse adipocytes): 25%; EC50 (mouse adipocytes): 260 pM
5 | 53 | 13 |  |  |  |  |  |  |  |  | SLEEEWAQIQEEVWGRGEPSESFYDWFERQL [compound 700] | relative affinity HIR −11 [3]: 70; relative affinity RIR −11 [4]: 10; relative affinity PIR −11 [5]: 1.4; relative affinity PIR +11 [6]: 4.3
6 | 127 | 112 |  |  |  |  |  |  |  |  | SLEEEWAQIQCEVWGRGCPSESFYGWFERQL [compound 667] | dose dependence of glucose level modulation (wistar rats; 1.25, 2.5, 5 nmol/kg): dose-dependent IR-mediated glucose level modulation; blood glucose lowering compared with human insulin (wistar rats; S667 1.25, 2.5, 5 nmol/kg, HI 1.25 nmol/kg, up to 180 minutes): lower blood glucose to levels similar to human insulin at similar dosages
7 |  | 9 |  |  |  |  |  |  |  |  | MeO-PEG5000-SLEEEWAQIECEVYGRGCPSESFYDWFERQL ({MeO‑PEG5000}-SLEEEWAQIECEVYGRGCPSESFYDWFERQL; cysteine pairing not given here) [compound 660] | 
8 | 117 | 79 |  |  |  |  |  |  |  |  | SLEEEWAQIQCEVWGRGCPSESFYDWFERQL [compound 636] | 
9 | 3.1 | 0.2 |  |  |  |  |  |  |  |  | SLEEEWAQVECEVYERGCPSESFYDWFERQL [compound 696] | 
10 | 78 | 12 |  |  |  |  |  |  |  |  | SLEEEWAQIECEVYGRGCPSVRGFQGGTVWPGYEWLRNAAKK [compound 626] | 
11 |  |  |  |  |  |  |  |  |  |  | Ac-SLEEEW-Aib-QIQCEVWGRPCPSEP-Dip-YGWFHEQLGPP (Ac-SLEEEW[Aib]QIQCEVWGRPCPSEP[Dip]YGWFHEQLGPP; cysteine pairing not given here) [compound 873] | Kd (HIR) rel. to HI (human IR (HIR)): 20%; stabilization towards all of the relevant enzymes as compared to S597 [7]: greater than 100 fold
12 | 121 | 7.7 |  |  |  |  |  |  |  |  | SLEEEWAQIECEVWGRGCPSEGFYNAIELLS [compound 726] | 
13 |  |  | 9700 pM | 0.4% | 78 | 12 | 59 | 11 | 1 | 3 | SLEEEWAQIECEVYGRGCPSVRGFQGGTVWPGYEWLRNAAKK [S626] | 
14 |  |  | 19000 pM | 0.3% | 121 | 7.7 | 83 | 13 | 1.3 | 5.9 | Ac-SLEEEWAQIECEVWGRGCPSEGFYNAIELLS (cysteine pairing not given here) [S726] | 
15 |  |  | 56 pM | 98% | 117 | 79 | 106 | 50 | 32 | 68 | Ac-SLEEEWAQIQCEVWGRGCPSESFYDWFERQL (cysteine pairing not given here) [S636] | 
16 |  |  | 870000 pM |  | 3.1 | 0.2 | 3.3 | 0.3 | 0.3 | 0.8 | SLEEEWAQVECEVYERGCPSESFYDWFERQL [S696] | 
17 |  |  | 210 pM | 31% | 127 | 112 | 111 | 44 | 47 | 84 | Ac-SLEEEWAQIQCEVWGRGCPSESFYGWFERQL (cysteine pairing not given here) [S667] | 
18 |  |  | 2000 pM | 3.3% | 58 | 9 | 52 | 6.5 | 5.5 | 12 | {MeO‑PEG5000}-SLEEEWAQIECEVYGRGCPSESFYDWFERQL (cysteine pairing not given here) [S660] | 
19 |  |  |  |  | 8.2 | 2 | 8.3 | 0.9 | 0.2 | 0.4 | SLEEEWAQIEAEVWGRGAPSESFYDWFERQLG [S574] | 
20 |  |  | 120 pM | 61% | 290 | 211 | 281 | 179 | 111 | 228 | Ac-SLEEEWAQIQCEVWGRGCPSESFYGWFERQLG (cysteine pairing not given here) [S733] | 

— US20100298213A1, “Pharmaceutically Active Insulin Receptor-Modulating Molecules” (Novo Nordisk A/S, priority 2004, published 2010)
